Laboratory results published in the supplement of paper PMC9112550, “Optimization of the antimicrobial peptide Bac7 by deep mutational scanning” (BMC Biology, 2022).

System: Escherichia coli TOP10
Assay: shrunken log2 fold change of peptide-encoding DNA abundance (4.5 h post-induction vs induction); higher = less antimicrobial activity (less host growth inhibition)
Conditions: time post-induction: 4.5 h; library: site-saturation at positions 5, 18, 19, 20
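Also: peptides expressed intracellularly from a pBAD plasmid library in pooled LB shake-flask culture, induced with 0.3% L-arabinose, DNA abundance read by NGS, three biological replicates, DESeq2 with apeglm shrinkage.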

| Sequence | shrunken log2 fold change |
| --- | --- |
| RRIRARPPRLPRPRPRPYTEPRP | -0.583 |
| RRIRYRPPRLPRPRPRPRHQPRP | -0.111 |
| RRIRGRPPRLPRPRPRPSNYPRP | -0.0111 |
| RRIRYRPPRLPRPRPRPSHIPRP | -1.45 |
| RRIRFRPPRLPRPRPRPMYQPRP | -0.167 |
| RRIRHRPPRLPRPRPRPVYDPRP | -0.202 |
| RRIRDRPPRLPRPRPRPAGMPRP | 0.411 |
| RRIRIRPPRLPRPRPRPDLFPRP | -0.103 |
| RRIRQRPPRLPRPRPRPFKPPRP | -0.0337 |
| RRIRSRPPRLPRPRPRPVLEPRP | 0.0953 |
| RRIRTRPPRLPRPRPRPDVTPRP | -0.06 |
| RRIRPRPPRLPRPRPRPSAGPRP | 0.243 |
| RRIRMRPPRLPRPRPRPHRRPRP | 0.0631 |
| RRIRHRPPRLPRPRPRPLKQPRP | -0.128 |
| RRIRCRPPRLPRPRPRPCWPPRP | -0.0967 |
| RRIRHRPPRLPRPRPRPYHEPRP | -0.0135 |
| RRIRQRPPRLPRPRPRPYYQPRP | -0.284 |
| RRIRWRPPRLPRPRPRPSANPRP | 0.559 |
| RRIRMRPPRLPRPRPRPYEWPRP | -0.0304 |
| RRIRRRPPRLPRPRPRPQFTPRP | -0.0485 |
| RRIRMRPPRLPRPRPRPQNFPRP | 0.0982 |
| RRIRLRPPRLPRPRPRPKGCPRP | -0.0474 |
| RRIRDRPPRLPRPRPRPENKPRP | 0.0324 |
| RRIRIRPPRLPRPRPRPSKPPRP | -0.189 |
| RRIRCRPPRLPRPRPRPILLPRP | -1.03 |

| Sequence | shrunken log2 fold change |
| --- | --- |
| RRIRMRPPRLPRPRPRPCWHPRP | -0.0624 |
| RRIRIRPPRLPRPRPRPSDDPRP | -0.191 |
| RRIRPRPPRLPRPRPRPFLTPRP | -0.254 |
| RRIRRRPPRLPRPRPRPCKWPRP | -0.0414 |
| RRIRLRPPRLPRPRPRPGYCPRP | -0.416 |
| RRIRHRPPRLPRPRPRPKAQPRP | 0.0148 |
| RRIRYRPPRLPRPRPRPSKQPRP | -0.137 |
| RRIRYRPPRLPRPRPRPLGVPRP | -0.0163 |
| RRIRPRPPRLPRPRPRPAQTPRP | 0.177 |
| RRIRHRPPRLPRPRPRPFFRPRP | -0.0964 |
| RRIRYRPPRLPRPRPRPMARPRP | -0.0425 |
| RRIRIRPPRLPRPRPRPWLRPRP | -0.358 |
| RRIRSRPPRLPRPRPRPMHQPRP | -0.0538 |
| RRIRPRPPRLPRPRPRPIINPRP | -0.909 |
| RRIRGRPPRLPRPRPRPFSWPRP | 0.353 |
| RRIRQRPPRLPRPRPRPKKDPRP | -0.184 |
| RRIRIRPPRLPRPRPRPDQPPRP | 0.022 |
| RRIRQRPPRLPRPRPRPTFQPRP | 0.00826 |
| RRIRDRPPRLPRPRPRPNEEPRP | -0.019 |
| RRIRRRPPRLPRPRPRPWHVPRP | -0.135 |
| RRIRCRPPRLPRPRPRPPEFPRP | 0.0967 |
| RRIRKRPPRLPRPRPRPQGCPRP | 0.421 |
| RRIRQRPPRLPRPRPRPWSTPRP | -0.0264 |
| RRIRQRPPRLPRPRPRPKYWPRP | -0.309 |
| RRIRTRPPRLPRPRPRPIILPRP | -0.25 |

| Sequence | shrunken log2 fold change |
| --- | --- |
| RRIRIRPPRLPRPRPRPYEWPRP | -0.00783 |
| RRIRKRPPRLPRPRPRPPMYPRP | -0.0675 |
| RRIRERPPRLPRPRPRPNTAPRP | 0.0197 |
| RRIRTRPPRLPRPRPRPISNPRP | -0.576 |
| RRIRFRPPRLPRPRPRPVGNPRP | 0.294 |
| RRIRFRPPRLPRPRPRPPGPPRP | 0.897 |
| RRIRFRPPRLPRPRPRPPSTPRP | 0.342 |
| RRIRNRPPRLPRPRPRPPVDPRP | 0.36 |
| RRIRSRPPRLPRPRPRPELNPRP | 0.399 |
| RRIRRRPPRLPRPRPRPQDLPRP | 0.0389 |
| RRIRCRPPRLPRPRPRPTNHPRP | -0.573 |
| RRIRERPPRLPRPRPRPMEAPRP | -0.261 |
| RRIRHRPPRLPRPRPRPSNRPRP | -0.771 |
| RRIRDRPPRLPRPRPRPIKKPRP | 0.0559 |
| RRIRWRPPRLPRPRPRPDRGPRP | -0.0836 |
| RRIRERPPRLPRPRPRPLTDPRP | -0.394 |
| RRIRIRPPRLPRPRPRPHVMPRP | -0.492 |
| RRIRDRPPRLPRPRPRPHPEPRP | 0.004 |
| RRIRQRPPRLPRPRPRPEHSPRP | -0.0123 |
| RRIRWRPPRLPRPRPRPIYCPRP | -0.581 |
| RRIRDRPPRLPRPRPRPLCFPRP | 0.0676 |
| RRIRQRPPRLPRPRPRPRGTPRP | 0.313 |
| RRIRERPPRLPRPRPRPFCDPRP | 0.211 |
| RRIRSRPPRLPRPRPRPPCGPRP | 0.182 |
| RRIRDRPPRLPRPRPRPMPRPRP | 0.26 |
